Source: the supplement of paper PMC10126150
± gives the standard deviation of the averaged measurements.

Test system: ATP
Assay: switch fluorescence ratio, 500 uM ATP over buffer (Cy3 cluster intensity, sum of 5 cycles each) (fold (ratio)); higher = stronger signal-on switching upon ATP binding; sequences stand for … in TCGTCGGCAGCGTCAGATGTGTATAAGAGACAGTTTTTTTTTTTTTTTTTTTTTTTTT…TC
Conditions: aptamer strand: ATP DNA aptamer (quencher-CACCTGGGGGAGTATTGCGGAGGAAGG + anchor), 100 nM annealed; ATP concentration: 500 uM
Summary of the method: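 Switching-strand clusters labelled with Cy3 on a modified Illumina MiSeq flow-cell were annealed to 100 nM quencher-labelled ATP aptamer, imaged in selection buffer, and re-imaged after 15 min with 500 uM ATP at 22 °C. This was done over five cycles with NaOH stripping and re-annealing in between. The fluorescence ratio is summed target-cycle over summed buffer-cycle Cy3 intensity per cluster, averaged per switch-domain sequence, excluding clusters outside 100-1000 RFU.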
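Further: ATP exposure 15 min at 22 °C before imaging.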

| Sequence | switch fluorescence ratio |
| --- | --- |
| AGTAACCAAG | 1.01 ± 0.037 |
| AGTAAGAGCA | 1.01 ± 0.011 |
| AGTAAGATCA | 0.992 ± 0.025 |
| AGTAAGGCTC | 1.14 ± 0.061 |
| AGTAAGGGGA | 1.08 ± 0.045 |
| AGTAATACGG | 1.3 ± 0.29 |
| AGTAATATTT | 1.03 ± 0.0061 |
| AGTAATGGGT | 0.996 ± 0.017 |
| AGTAATGGTT | 1.01 ± 0.014 |
| AGTAATTTTG | 1.01 ± 0.065 |
| AGTAATTTTT | 1 ± 0.018 |
| AGTAGAGCCT | 1.061 ± 0.0069 |
| AGTAGAGGGA | 0.995 ± 0.019 |
| AGTAGAGTGT | 0.995 ± 0.04 |
| AGTAGATTCC | 1.042 ± 0.01 |
| AGTAGATTGG | 0.995 ± 0.028 |
| AGTAGCAAAT | 1.2 ± 0.13 |
| AGTAGGAAGG | 1.01 ± 0.019 |
| AGTAGGCAAA | 1.01 ± 0.014 |
| AGTAGGCAAG | 1 ± 0.035 |
| AGTAGGCAGC | 1.01 ± 0.033 |
| AGTAGGCGCT | 1.01 ± 0.048 |

| Sequence | switch fluorescence ratio |
| --- | --- |
| AGTAGGGCTC | 1 ± 0.046 |
| AGTAGGGGGA | 0.9912 ± 0.0034 |
| AGTAGGGGT | 1.02 ± 0.054 |
| AGTAGGGTGT | 0.968 ± 0.029 |
| AGTAGGTTTT | 1.04 ± 0.078 |
| AGTAGTATCT | 0.981 ± 0.03 |
| AGTAGTGGGT | 1.02 ± 0.056 |
| AGTAGTTATA | 1.03 ± 0.093 |
| AGTAGTTGCC | 1.014 ± 0.0021 |
| AGTATAAAAT | 1.01 ± 0.018 |
| AGTATAGACC | 0.983 ± 0.01 |
| AGTATAGAGT | 1.01 ± 0.037 |
| AGTATAGGGG | 1.006 ± 0.007 |
| AGTATATAGG | 0.986 ± 0.018 |
| AGTATATGGG | 0.988 ± 0.023 |
| AGTATCACAG | 0.9621 ± 0.0047 |
| AGTATCTTTA | 0.9913 ± 0.0096 |
| AGTATGAGGT | 0.98 ± 0.012 |
| AGTATGCATA | 0.951 ± 0.016 |
| AGTATGTATG | 1.02 ± 0.024 |
| AGTATGTTTT | 0.995 ± 0.0076 |
| AGTATTGCAG | 0.9322 ± 0.002 |

| Sequence | switch fluorescence ratio |
| --- | --- |
| AGTATTTGGT | 1 ± 0.025 |
| AGTATTTGTA | 1 ± 0.02 |
| AGTATTTTGG | 1.01 ± 0.018 |
| AGTCAGATGG | 0.981 ± 0.025 |
| AGTCAGGGGG | 1 ± 0.028 |
| AGTCAGTTTT | 1.024 ± 0.0078 |
| AGTCATGAAA | 1.11 ± 0.12 |
| AGTCATGTGG | 1.01 ± 0.019 |
| AGTCCAATGT | 0.993 ± 0.021 |
| AGTCCCAAGG | 1.13 ± 0.2 |
| AGTCCGGAGT | 1.05 ± 0.023 |
| AGTCCGGGTA | 1.08 ± 0.17 |
| AGTCGAGCTA | 0.986 ± 0.021 |
| AGTCGGACTT | 0.993 ± 0.01 |
| AGTCGGCTGT | 0.99449 ± 0.00015 |
| AGTCGTTGGG | 0.984 ± 0.015 |
| AGTCTAGGGC | 1.04 ± 0.017 |
| AGTCTATCTG | 0.964 ± 0.03 |
| AGTCTGCTCG | 1 ± 0.018 |
| AGTCTGGATC | 0.9959 ± 0.0084 |
| AGTCTGGGTA | 0.965 ± 0.016 |
| AGTCTGTCGT | 0.98 ± 0.039 |

| Sequence | switch fluorescence ratio |
| --- | --- |
| AGTCTTAGGG | 0.972 ± 0.023 |
| AGTCTTCTGG | 1.01 ± 0.026 |
| AGTCTTTTTG | 0.999 ± 0.03 |
| AGTGAAAATG | 1.05 ± 0.029 |
| AGTGAAAATT | 1 ± 0.038 |
| AGTGAGCTGA | 0.9769 ± 0.0069 |
| AGTGAGCTTG | 0.9818 ± 0.0038 |
| AGTGAGGCGC | 1.01 ± 0.024 |
| AGTGAGTCTG | 0.995 ± 0.053 |
| AGTGATATTA | 1.01 ± 0.022 |
| AGTGATGAAG | 0.996 ± 0.037 |
| AGTGATGTGT | 1 ± 0.017 |
| AGTGCAGAGA | 0.989 ± 0.028 |
| AGTGCCCAGG | 2.4 ± 1.6 |
| AGTGCGATGT | 0.988 ± 0.016 |
| AGTGCGTCTC | 0.975 ± 0.012 |
| AGTGCTTGAG | 0.977 ± 0.043 |
| AGTGGAACTT | 0.976 ± 0.036 |
| AGTGGAGGGC | 1.03 ± 0.036 |
